Reference: patent US20230035235A1 (published 2023)

Assays:
SMARCA2 = biological target: T1, SMARCA2 (human, UniProt P51531 1-1590, limits assumed); assay: HA affinity purification from HEK-293T nuclear extract, glycerol gradient fraction 15, mass spectrometry (co-purification in the complex)
T1 construct: also called BRM; BAF190

[1] = biological target: T2, H0Y3S9 (gene symbol printed cut off as 'ARID', 29.4 kDa) (human); assay: as above
T2 construct: Which ARID gene is meant cannot be told from the print

[2] = biological target: T3, A0A0A0MT49 (gene symbol printed cut off as 'SMA', about 188 kDa) (human); assay: as above
T3 construct: Separate database entry of the search; gene symbol cut off in print

SMARCC2 = biological target: T4, SMARCC2 (human, UniProt Q8TAQ2 1-1214, limits assumed); assay: as above
T4 construct: also called BAF170; Q8TAQ2_SMRC2

[3] = biological target: T5, G5E975 (gene symbol printed cut off as 'SMA', 45.0 kDa) (human); assay: as above
T5 construct: Separate database entry of the search; gene symbol cut off in print

SMARCC1 = biological target: T6, SMARCC1 (human, UniProt Q92922 2-1105); assay: as above
T6 construct: also called BAF155; Q92922_SMRC1

SMARCE1 = biological target: T7, SMARCE1 (human, UniProt Q969G3 1-411); assay: as above
T7 construct: also called BAF57; Q969G3_SMCE1
T7 sequence (Q969G3 whole entry): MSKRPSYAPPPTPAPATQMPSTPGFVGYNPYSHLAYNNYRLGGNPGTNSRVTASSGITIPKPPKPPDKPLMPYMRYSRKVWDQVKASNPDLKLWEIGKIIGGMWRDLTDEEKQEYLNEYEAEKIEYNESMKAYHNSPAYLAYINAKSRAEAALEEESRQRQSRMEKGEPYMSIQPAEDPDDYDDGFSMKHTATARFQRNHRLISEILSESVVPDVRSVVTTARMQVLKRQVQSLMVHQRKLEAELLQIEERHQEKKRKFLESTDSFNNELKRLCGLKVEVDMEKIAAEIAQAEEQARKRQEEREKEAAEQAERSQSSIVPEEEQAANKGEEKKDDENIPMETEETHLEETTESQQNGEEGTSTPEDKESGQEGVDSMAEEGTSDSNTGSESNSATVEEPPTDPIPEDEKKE

SMARCA4 [4] = biological target: T8, SMARCA4 (human, UniProt P51532 1-1647, limits assumed); assay: as above
T8 construct: also called BRG1; BAF190

SS18 = biological target: T9, SS18 (human, UniProt Q15532 2-418, limits assumed); assay: as above
T9 construct: also called Q15532_SSXT
T9 sequence (Q15532 2-418 limits assumed): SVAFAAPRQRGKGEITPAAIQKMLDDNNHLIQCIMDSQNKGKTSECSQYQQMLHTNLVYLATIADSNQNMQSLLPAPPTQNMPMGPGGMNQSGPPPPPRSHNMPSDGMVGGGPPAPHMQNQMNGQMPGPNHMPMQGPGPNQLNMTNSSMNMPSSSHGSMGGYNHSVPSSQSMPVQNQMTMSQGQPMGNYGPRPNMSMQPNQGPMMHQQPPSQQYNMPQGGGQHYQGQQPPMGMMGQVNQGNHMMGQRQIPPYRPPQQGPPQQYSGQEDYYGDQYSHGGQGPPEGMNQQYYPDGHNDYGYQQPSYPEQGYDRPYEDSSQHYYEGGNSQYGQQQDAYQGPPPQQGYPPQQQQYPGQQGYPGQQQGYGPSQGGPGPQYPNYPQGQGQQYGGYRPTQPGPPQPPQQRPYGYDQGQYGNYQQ

[5] = biological target: T10, DPF1, entry C8C3P2 (45.0 kDa) (human); assay: as above
T10 construct: Separate database entry of DPF1; also called C8C3P2_C8C3

[6] = biological target: T11, DPF3, entry F8W7T1 (46.4 kDa) (human); assay: as above
T11 construct: Separate database entry of DPF3; also called F8W7T1_F8W7
T11 sequence (Q92784 whole entry): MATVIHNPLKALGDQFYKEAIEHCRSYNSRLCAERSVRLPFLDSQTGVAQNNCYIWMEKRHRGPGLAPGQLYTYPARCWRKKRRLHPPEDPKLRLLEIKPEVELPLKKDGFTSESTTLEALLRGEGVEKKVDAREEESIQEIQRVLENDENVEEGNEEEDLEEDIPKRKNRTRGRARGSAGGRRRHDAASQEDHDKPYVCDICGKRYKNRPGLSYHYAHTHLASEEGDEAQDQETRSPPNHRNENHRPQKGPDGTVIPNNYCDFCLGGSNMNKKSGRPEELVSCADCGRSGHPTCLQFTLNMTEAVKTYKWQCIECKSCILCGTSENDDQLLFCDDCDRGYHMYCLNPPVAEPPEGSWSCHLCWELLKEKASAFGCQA

ARID2 = biological target: T12, ARID2 (human, UniProt Q68CP9 2-1835); assay: as above
T12 construct: also called BAF200; Q68CP9_ARID2

[7] = biological target: T13, PBRM1, entry C9J053 (13.6 kDa) (human); assay: as above
T13 construct: Separate fragment entry; gene symbol cut off in print; also called C9J053_C9J053

ARID1A = biological target: T14, ARID1A (human, UniProt O14497 2-2285); assay: as above
T14 construct: also called BAF250A; O14497_ARI1A

ARID1B = biological target: T15, ARID1B (human, UniProt Q8NFD5 84-2319, limits assumed); assay: as above
T15 construct: also called BAF250B; Q8NFD5_ARI1B
T15 sequence (Q8NFD5 84-2319 limits assumed, form in doubt): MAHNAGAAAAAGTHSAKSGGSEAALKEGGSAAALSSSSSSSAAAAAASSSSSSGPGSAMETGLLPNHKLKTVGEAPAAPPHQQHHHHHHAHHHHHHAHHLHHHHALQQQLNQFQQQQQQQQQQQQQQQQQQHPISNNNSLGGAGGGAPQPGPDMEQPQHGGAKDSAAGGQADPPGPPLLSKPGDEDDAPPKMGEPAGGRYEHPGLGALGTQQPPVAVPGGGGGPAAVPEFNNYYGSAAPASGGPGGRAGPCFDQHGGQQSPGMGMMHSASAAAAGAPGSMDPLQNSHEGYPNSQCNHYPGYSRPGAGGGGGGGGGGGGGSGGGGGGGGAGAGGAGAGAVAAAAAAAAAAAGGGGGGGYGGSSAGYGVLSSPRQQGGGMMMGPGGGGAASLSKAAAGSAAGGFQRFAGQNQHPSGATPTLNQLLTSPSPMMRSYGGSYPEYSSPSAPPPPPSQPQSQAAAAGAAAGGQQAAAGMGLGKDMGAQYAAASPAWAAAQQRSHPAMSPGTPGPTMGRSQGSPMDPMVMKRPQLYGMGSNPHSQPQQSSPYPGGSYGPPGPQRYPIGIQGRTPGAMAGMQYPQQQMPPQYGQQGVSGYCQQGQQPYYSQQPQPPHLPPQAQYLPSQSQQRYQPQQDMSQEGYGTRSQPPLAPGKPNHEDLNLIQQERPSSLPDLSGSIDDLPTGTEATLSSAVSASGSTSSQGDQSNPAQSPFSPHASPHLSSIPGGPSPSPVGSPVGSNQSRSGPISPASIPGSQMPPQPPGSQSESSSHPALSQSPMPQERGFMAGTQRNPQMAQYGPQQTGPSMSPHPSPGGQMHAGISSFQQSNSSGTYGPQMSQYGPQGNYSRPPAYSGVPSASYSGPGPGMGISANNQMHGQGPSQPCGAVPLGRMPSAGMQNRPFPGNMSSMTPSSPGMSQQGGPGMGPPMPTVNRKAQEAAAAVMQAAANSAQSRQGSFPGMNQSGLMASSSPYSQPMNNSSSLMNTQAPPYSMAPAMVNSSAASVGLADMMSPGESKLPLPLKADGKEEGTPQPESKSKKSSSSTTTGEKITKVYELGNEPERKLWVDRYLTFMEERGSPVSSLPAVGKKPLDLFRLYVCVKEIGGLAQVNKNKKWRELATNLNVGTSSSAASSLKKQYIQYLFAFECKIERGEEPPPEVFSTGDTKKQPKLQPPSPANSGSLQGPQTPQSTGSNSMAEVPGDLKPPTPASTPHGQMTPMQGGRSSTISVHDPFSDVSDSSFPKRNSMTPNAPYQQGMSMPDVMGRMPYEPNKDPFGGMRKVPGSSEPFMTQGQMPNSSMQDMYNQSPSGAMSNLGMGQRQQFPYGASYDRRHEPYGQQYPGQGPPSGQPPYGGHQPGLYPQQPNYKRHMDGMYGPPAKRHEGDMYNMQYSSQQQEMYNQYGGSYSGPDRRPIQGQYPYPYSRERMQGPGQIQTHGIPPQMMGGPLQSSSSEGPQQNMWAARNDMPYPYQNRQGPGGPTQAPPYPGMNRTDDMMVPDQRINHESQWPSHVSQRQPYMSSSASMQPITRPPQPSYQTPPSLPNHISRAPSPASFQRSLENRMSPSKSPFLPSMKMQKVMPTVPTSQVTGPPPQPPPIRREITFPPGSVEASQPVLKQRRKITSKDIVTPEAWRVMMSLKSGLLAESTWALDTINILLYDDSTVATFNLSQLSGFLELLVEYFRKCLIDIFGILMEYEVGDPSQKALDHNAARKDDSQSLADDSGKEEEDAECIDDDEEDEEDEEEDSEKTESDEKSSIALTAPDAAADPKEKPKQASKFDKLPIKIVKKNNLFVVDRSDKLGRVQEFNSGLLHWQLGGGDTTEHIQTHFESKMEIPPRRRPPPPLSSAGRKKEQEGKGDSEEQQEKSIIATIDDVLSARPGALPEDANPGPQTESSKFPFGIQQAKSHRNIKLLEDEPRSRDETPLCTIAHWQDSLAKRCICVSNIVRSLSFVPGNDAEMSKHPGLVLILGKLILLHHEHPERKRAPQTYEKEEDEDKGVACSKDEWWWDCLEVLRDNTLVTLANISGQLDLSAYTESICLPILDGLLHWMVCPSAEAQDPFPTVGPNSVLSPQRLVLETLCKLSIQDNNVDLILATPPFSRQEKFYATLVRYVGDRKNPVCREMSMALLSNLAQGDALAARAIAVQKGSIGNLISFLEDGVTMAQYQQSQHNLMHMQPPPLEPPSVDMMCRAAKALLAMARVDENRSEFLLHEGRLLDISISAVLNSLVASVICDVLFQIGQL

SMARCA4 [8] = biological target: T16, SMARCA4 (human, UniProt P51532 1-1647, limits assumed); assay: inter-protein BS3 crosslinks (CX-MS), HA-BRD7-purified PBAF complexes from HEK-293T
T16 construct: Endogenous PBAF subunit; numbering on the printed UniProt entry; also called BRG1; BAF190

[9] = biological target: T17, SMARCA4 (SWI/SNF related, matrix associated, actin dependent regulator of chromatin, subfamily a, member 4) (human, UniProt P51532 1-1647, limits assumed); assay: inter-protein BS3 crosslink, CX-MS of HA-PHF10-purified PBAF complexes from HEK-293T cells
T17 construct: Endogenous subunit co-purified in native PBAF complex; The crosslink positions count on P51532; also called BRG1; BAF190

[10] = biological target: T18, SMARCC1 (SWI/SNF related, matrix associated, actin dependent regulator of chromatin subfamily c member 1) (human, UniProt Q92922 1-1105); assay: HA-GLTSCR1L purification from HEK-293T cells, silver stain and gradient MS
T18 construct: also called BAF155; HA-SMARCC1

T1 sequence (P51531 whole entry): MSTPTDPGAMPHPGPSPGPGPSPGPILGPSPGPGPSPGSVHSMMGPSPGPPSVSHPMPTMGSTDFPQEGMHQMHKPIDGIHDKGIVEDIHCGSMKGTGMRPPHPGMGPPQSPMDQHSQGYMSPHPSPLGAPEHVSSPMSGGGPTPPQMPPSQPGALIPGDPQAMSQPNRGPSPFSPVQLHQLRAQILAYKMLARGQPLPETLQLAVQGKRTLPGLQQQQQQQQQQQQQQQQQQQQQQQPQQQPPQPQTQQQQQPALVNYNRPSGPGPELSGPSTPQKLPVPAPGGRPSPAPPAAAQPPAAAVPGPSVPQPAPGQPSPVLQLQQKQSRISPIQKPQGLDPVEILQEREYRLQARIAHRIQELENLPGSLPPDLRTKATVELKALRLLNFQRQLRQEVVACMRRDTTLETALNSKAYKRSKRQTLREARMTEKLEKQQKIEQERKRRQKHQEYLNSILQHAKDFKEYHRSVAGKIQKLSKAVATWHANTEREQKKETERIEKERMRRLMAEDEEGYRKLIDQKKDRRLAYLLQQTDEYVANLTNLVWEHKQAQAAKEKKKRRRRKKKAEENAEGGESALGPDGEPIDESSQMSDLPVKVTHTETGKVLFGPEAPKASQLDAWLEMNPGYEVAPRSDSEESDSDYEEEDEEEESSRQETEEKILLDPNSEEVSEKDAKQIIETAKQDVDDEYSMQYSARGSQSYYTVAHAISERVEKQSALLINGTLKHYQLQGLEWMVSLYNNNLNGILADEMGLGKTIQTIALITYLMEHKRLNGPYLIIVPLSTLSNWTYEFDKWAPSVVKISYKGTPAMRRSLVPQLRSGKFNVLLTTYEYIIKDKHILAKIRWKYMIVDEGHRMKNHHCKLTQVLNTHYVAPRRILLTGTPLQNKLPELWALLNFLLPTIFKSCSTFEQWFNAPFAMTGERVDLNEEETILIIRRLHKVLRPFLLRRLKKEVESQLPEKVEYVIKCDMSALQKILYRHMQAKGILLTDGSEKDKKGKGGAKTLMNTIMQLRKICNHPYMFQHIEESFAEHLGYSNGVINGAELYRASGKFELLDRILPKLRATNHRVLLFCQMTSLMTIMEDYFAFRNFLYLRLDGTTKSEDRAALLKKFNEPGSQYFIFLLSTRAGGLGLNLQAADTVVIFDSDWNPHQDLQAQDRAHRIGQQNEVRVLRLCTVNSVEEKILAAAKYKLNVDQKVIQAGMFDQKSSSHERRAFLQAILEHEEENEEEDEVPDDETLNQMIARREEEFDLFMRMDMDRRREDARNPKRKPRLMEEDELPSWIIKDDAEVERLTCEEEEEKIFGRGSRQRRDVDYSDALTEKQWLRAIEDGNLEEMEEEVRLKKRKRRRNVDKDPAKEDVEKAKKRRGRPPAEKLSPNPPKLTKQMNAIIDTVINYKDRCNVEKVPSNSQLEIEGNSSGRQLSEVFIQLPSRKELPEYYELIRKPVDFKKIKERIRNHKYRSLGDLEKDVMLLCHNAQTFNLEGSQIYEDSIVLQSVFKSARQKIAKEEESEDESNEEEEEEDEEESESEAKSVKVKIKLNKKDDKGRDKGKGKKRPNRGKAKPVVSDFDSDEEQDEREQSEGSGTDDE

B1: HA-SMARCD1 (other, human, UniProt Q96GM5 1-515, looked up)
chain: MAARAGFQSVAPSGGAGASGGAGAAAALGPGGTPGPPVRMGPAPGQGLYRSPMPGAAYPRPGMLPGSRMTPQGPSMGPPGYGGNPSVRPGLAQSGMDQSRKRPAPQQIQQVQQQAVQNRNHNAKKKKMADKILPQRIRELVPESQAYMDLLAFERKLDQTIMRKRLDIQEALKRPIKQKRKLRIFISNTFNPAKSDAEDGEGTVASWELRVEGRLLEDSALSKYDATKQKRKFSSFFKSLVIELDKDLYGPDNHLVEWHRTATTQETDGFQVKRPGDVNVRCTVLLMLDYQPPQFKLDPRLARLLGIHTQTRPVIIQALWQYIKTHKLQDPHEREFVICDKYLQQIFESQRMKFSEIPQRLHALLMPPEPIIINHVISVDPNDQKKTACYDIDVEVDDTLKTQMNSFLLSTASQQEIATLDNKIHETIETINQLKTQREFMLSFARDPQGFINDWLQSQCRDLKTMTDVVGNPEEERRAEFYFQPWAQEAVCRYFYSKVQQRRQELEQALGIRNT
notes: also called BAF60A; Q96GM5_SMRD1; not shown: HA tag
SMARCA2
  total peptides: 206 peptides
  unique peptides: 74 peptides
[1]
  total peptides: 1 peptides
  unique peptides: 1 peptides
[2]
  total peptides: 8 peptides
  unique peptides: 2 peptides
SMARCC2
  total peptides: 172 peptides
  unique peptides: 55 peptides
[3]
  total peptides: 3 peptides
  unique peptides: 2 peptides
SMARCC1
  total peptides: 403 peptides
  unique peptides: 88 peptides
SMARCE1
  total peptides: 114 peptides
  unique peptides: 33 peptides
SMARCA4 [4]
  total peptides: 153 peptides
  unique peptides: 53 peptides
SS18
  total peptides: 3 peptides
  unique peptides: 2 peptides
[5]
  total peptides: 1 peptides
  unique peptides: 1 peptides
[6]
  total peptides: 2 peptides
  unique peptides: 1 peptides
ARID2
  total peptides: 55 peptides
  unique peptides: 41 peptides
[7]
  total peptides: 1 peptides
  unique peptides: 1 peptides
ARID1A
  total peptides: 321 peptides
  unique peptides: 100 peptides
ARID1B
  total peptides: 189 peptides
  unique peptides: 75 peptides

B2: PHF10 (other, human, UniProt Q8WUB8 2-498, looked up)
chain: AAAAGPGAALSPRPCDSDPATPGAQSPKDDNEDNSNDGTQPSKRRRMGSGDSSRSCETSSQDLGFSYYPAENLIEYKWPPDETGEYYMLQEQVSEYLGVTSFKRKYPDLERRDLSHKEKLYLRELNVITETQCTLGLTALRSDEVIDLMIKEYPAKHAEYSVILQEKERQRITDHYKEYSQMQQQNTQKVEASKVPEYIKKAAKKAAEFNSNLNRERMEERRAYFDLQTHVIQVPQGKYKVLPTERTKVSSYPVALIPGQFQEYYKRYSPDELRYLPLNTALYEPPLDPELPALDSDGDSDDGEDGRGDEKRKNKGTSDSSSGNVSEGESPPDSQEDSFQGRQKSKDKAATPRKDGPKRSVLSKSVPGYKPKVIPNAICGICLKGKESNKKGKAESLIHCSQCENSGHPSCLDMTMELVSMIKTYPWQCMECKTCIICGQPHHEEEMMFCDMCDRGYHTFCVGLGAIPSGRWICDCCQRAPPTPRKVGRRGKNSKEG
notes: Endogenous PBAF subunit; numbering on the printed UniProt entry; also called BAF45A
SMARCA4 [8]
  binding result: binds

B3: BRD7 (Bromodomain-containing protein 7) (other, human, UniProt Q9NPI1 1-651, looked up)
chain: MGKKHKKHKSDKHLYEEYVEKPLKLVLKVGGNEVTELSTGSSGHDSSLFEDKNDHDKHKDRKRKKRKKGEKQIPGEEKGRKRRRVKEDKKKRDRDRVENEAEKDLQCHAPVRLDLPPEKPLTSSLAKQEEVEQTPLQEALNQLMRQLQRKDPSAFFSFPVTDFIAPGYSMIIKHPMDFSTMKEKIKNNDYQSIEELKDNFKLMCTNAMIYNKPETIYYKAAKKLLHSGMKILSQERIQSLKQSIDFMADLQKTRKQKDGTDTSQSGEDGGCWQREREDSGDAEAHAFKSPSKENKKKDKDMLEDKFKSNNLEREQEQLDRIVKESGGKLTRRLVNSQCEFERRKPDGTTTLGLLHPVDPIVGEPGYCPVRLGMTTGRLQSGVNTLQGFKEDKRNKVTPVLYLNYGPYSSYAPHYDSTFANISKDDSDLIYSTYGEDSDLPSDFSIHEFLATCQDYPYVMADSLLDVLTKGGHSRTLQEMEMSLPEDEGHTRTLDTAKEMEITEVEPPGRLDSSTQDRLIALKAVTNFGVPVEVFDSEEAEIFQKKLDETTRLLRELQEAQNERLSTRPPPNMICLLGPSYREMHLAEQVTNNLKELAQQVTPGDIVSTYGVRKAMGISIPSPVMENNFVDLTEDTEEPKKTDVAECGPGGS
notes: Endogenous subunit co-purified in native PBAF complex; The crosslink positions count on Q9NPI1; also called Q9NPI1
[9]
  binding result: binds

B4: GLTSCR1L (BRD4 Interacting Chromatin Remodeling Complex Associated Protein Like) (other, human, UniProt Q6AI39 1-1079, looked up)
chain: MDDDDDSCLLDLIGDPQALNYFLHGPSNKSSNDDLTNAGYSAANSNSIFANSSNADPKSSLKGVSNQLGEGPSDGLPLSSSLQFLEDELESSPLPDLTEDQPFDILQKSLQEANITEQTLAEEAYLDASIGSSQQFAQAQLHPSSSASFTQASNVSNYSGQTLQPIGVTHVPVGASFASNTVGVQHGFMQHVGISVPSQHLSNSSQISGSGQIQLIGSFGNHPSMMTINNLDGSQIILKGSGQQAPSNVSGGLLVHRQTPNGNSLFGNSSSSPVAQPVTVPFNSTNFQTSLPVHNIIIQRGLAPNSNKVPINIQPKPIQMGQQNTYNVNNLGIQQHHVQQGISFASASSPQGSVVGPHMSVNIVNQQNTRKPVTSQAVSSTGGSIVIHSPMGQPHAPQSQFLIPTSLSVSSNSVHHVQTINGQLLQTQPSQLISGQVASEHVMLNRNSSNMLRTNQPYTGPMLNNQNTAVHLVSGQTFAASGSPVIANHASPQLVGGQMPLQQASPTVLHLSPGQSSVSQGRPGFATMPSVTSMSGPSRFPAVSSASTAHPSLGSAVQSGSSGSNFTGDQLTQPNRTPVPVSVSHRLPVSSSKSTSTFSNTPGTGTQQQFFCQAQKKCLNQTSPISAPKTTDGLRQAQIPGLLSTTLPGQDSGSKVISASLGTAQPQQEKVVGSSPGHPAVQVESHSGGQKRPAAKQLTKGAFILQQLQRDQAHTVTPDKSHFRSLSDAVQRLLSYHVCQGSMPTEEDLRKVDNEFETVATQLLKRTQAMLNKYRCLLLEDAMRINPSAEMVMIDRMFNQEERASLSRDKRLALVDPEGFQADFCCSFKLDKAAHETQFGRSDQHGSKASSSLQPPAKAQGRDRAKTGVTEPMNHDQFHLVPNHIVVSAEGNISKKTECLGRALKFDKVGLVQYQSTSEEKASRREPLKASQCSPGPEGHRKTSSRSDHGTESKLSSILADSHLEMTCNNSFQDKSLRNSPKNEVLHTDIMKGSGEPQPDLQLTKSLETTFKNILELKKAGRQPQSDPTVSGSVELDFPNFSPMASQENCLEKFIPDHSEGVVETDSILEAAVNSILEC
notes: also called BICRAL; HA-GLTSCR1L
[10]
  binding result: binds
